The data set is described as follows: soluble on expression in E. coli; label from the status in PepcDB or PDB records.
As to “MAHDLARGDKSDLRDKVVKPITNNVSVLVMGVDESDVRGKEYGDAIRTDALLLATFNKDSKTVKLLSIPRDTYTYIPVEKKKDKITHAHAYGSTKNGKDGGPQASIDAVEKLLNVPVDYFVKFNFKSFMKIVDDLGGIEVDVPVEFTEQDSNDNADAIHLKKGVQKLNSEEALALARTRHIDSDAMRGQRQQLVIEAILKKLTSVGSVTKVGNIIDDINGQFVTNLTFDDMLSFYKYGSDSEIEKLQIQGEDCYMAKGLEHHHHHH”, the “soluble on expression in E. coli” value is given as “soluble”.
Next, “MAHHHHHHHRSDASVIVVGAGPAGLMLAGELRLGGVDVMVLEQLPQRTGESRGLGFTARTMEVFDQRGILPAFGPVETSTQGHFGGRPVDFGVLEGAHYGVKAVPQSTTESVLEEWALGRGAELLRGHTVRALTDEGDHVVVEVEGPDGPRSLTTRYVVGCDGGRSTVRKAAGFDFPGTSASREMFLADIRGCEITPRPIGETVPLGMVMSAPLGDGVDRIIVCERGAPARRRTGPPPYQEVAAAWQRLTGQDISHGEPVWVSAFGDPARQVSAYRRGRVLLAGDSAHVHLPAGGQGMNVSVQDSVNLGWKLAAVVSGRAPAGLLDTYHEERHPVGRRLLMNTQAQGMLFLSGDEMQPLRDVLSELIRYDEVSRHLAGMVSGLDIRYEVDGGDHPLLGMRMPHQELVRAHGKTSTTELLHPARGVLLDIADDAEVREAATGWSDRVDIVTASLHDAPPQGPLSDARAVLVRPDGYVAWISPGSRAGLTEALDRWFGPAR”: “soluble”.
On to “MAHHHHHHMAAPSHQHSLVLERSTCHHYYHCVLYDILFDLPVREIAAQVVPCKDSNIVQRLTSADCRVVPHQLHVYKEPLEKKFGYVSFFVHRAPHSSTAADDVHRLVCEWVAVDLASQLATVQCKVQLAQPPECHSSEPFLNAFRLKCPLLDPTLAADTKKLETFVLTRVRFGQHCGNASVNQLNAVHCDDAKSAASAGSCGTETEMCTDDGLTATEGELDAGARSATRTLDEHVWKCVGTFLIASLSPKELVWLKKQLPSFPPLRIANGDMDTAYCDEAKLAQFFETSLAPLFTVDEVVEAAALNTVNSEA”, for which the “soluble on expression in E. coli” value is “not soluble”.
Turning to “MAHHHHHHMAASLSSSPVRHPIVDNAAVPAASHRIPPPLNGFAFLEHRRSALSHDTFIARDVRQQQHPEQQDNDPAKVIIRVYALEYLRRDEECRFALERECLTARLVVHPHLLPLGAPFASKTDLFVVEKYCAGGDLYELMVSLAKEDPIASEMGAAKGEAPPRSSTGLPTNTVKRFMRELLSAVQYLHRTCGLVHRNIKLETLFIDEEQHLRLGGFGLCAVLPPPSVVTGDREGALDAPDAPEDTASSSHEPLRLCCGSKHYAAPELVQGHPYQGEGVDAWACGVVLFALLTSCFPFDSDDGDEALFRLLCGDVEAHLAQHPAMAAIEDPQACDLVRNLLRPNPNARYTVSEALEHPYLWVA”, the “soluble on expression in E. coli” value is recorded as “not soluble”.
In the case of “MAHHHHHHMALRGVPIRLGVHRVGYTHPSTLPVPCAQRWDLRLARARIFQEYIEEKAPGAWQLEDERSMSPEFKTFTGYPMREMRPGYGQNLPDFIMKKRLPNNTHYELFARRDIPNEENAMYGKYLYDMTVHGTSLPSTYRMHKDINKAQRNDRKLSGNRFRVLCSSGAKKPPSGWEPIPDATEEEE” it was “not soluble”; in that of “MAHHHHHHMASQKPEDVTVSDGMLANLEREFNEAMRALEGHVKFVCFREEYEKLHRALLNSHESEKRLVRRCQQLTQELMSNAAKMQAAVKLAQDDHTTIEALKKETEKAWRMVDVANEKDARAKETIKKLREEVFSLQEIVENGTELTPTQTATLEELKLEKKRMQSEYDELVKQMETLTRETFELGHKMKEAEEEMMKHQEELRRVTDREKTVRQEYEKELRARDRSNLQLREQLLLVQQREKELKSHEQLHSKLSSAVNLLRLQLQEDQNRRQALAQKIESAERQLYHTQQSYDDAVDTREALNERHREVRKEITEAEKKAVDITAEKQRTHRVRDNDYKELCRLVQQNEDIRRDQTNLERQRLNVEKRIEMARREKEDLCRAFEMMQREKDSLKKVSEKEREKMQIMKN”, “soluble”.
In the case of “MAHHHHHHMATVYTSVPGKDFAKGVTLDEANRIVRVDAGLPLLSALQVGMIVRSIGGVPVGDGRCEQARHHSNRSQVLVVLGAPPKDEFDLCSDDDDAANLKPPSTLPPLPPEFNNSVAQNSSGVVYEATVKCGEGGCVIIMCEGANPALAITLAAEKAKAEVMYIDTVARMKTRQTLENAGEVLKKSLEKGLWIYVEQATKSITLLRQISDCIMEVRAAGKMHAQSRVLLMCEPHPHFPEALMRGSVTLRSRLQNNNMAEVDIREDLSESAHRKQAIHGDDVASSETAAKPEVTKTRKKVRISNQVNIVHLEKSTFMEMSASAQPPLESGTSHDGISRVAKYSFGSNENLISLSYVRDHRFAIGTNSGYVVLIDRNGLPLIQFRPHKACIWDVSFSSQFDFSTACEDGTSVIYKYSLANQELTTVSVASFQNDVFAVTYANPNDVNSGVLSGGLSATVCVLHSDRQNSSFIACRTSIQAMCATQMNQVIVGGGTGACTLIDTNHCVVTDITHAHNKKVPAVGTHGNVAVTGGFDCVLRLWDVRNGFHLTSQRQLNEVITAVAMNERYISACSGSSLYVWDPRKMDRTLAVKANAWKDLTRGLVLDGSTIVTASVDGVARIWEVS” it was “not soluble”.
As for “MAHHHHHHMCLSNLSYFFGAFEAVEPARSENDGGYASDWLSTLYSSLGLVLAHYLFEDNVEATVEATRILGNISYTNAGRDWMEANHCDEVTVLFLGHEDLRVVYNCCGVLLNLTAASPCRVVQDPELLQTMLSYTSRYTDQDRVEAVTALEEARLRQEQQELQQQRRGGDMKELVSEASSHVAQISDIVEKLLLNVHGVLHASAI”, the “soluble on expression in E. coli” value is on record as “not soluble”.
With “MAHHHHHHMDDERTTAAGRITSTNVREEEPSITVPCELDTHIEQHERRKRGRVWTAEEQAAYWREKKEKQRQRKKAAAAERREMQQKEWEALSQSERERRRAEAIAVHEKRRGAEMRLQQLCQEHLADAKLPVLVFDLSFAWCMNASDCRSTVSQVKLSYSALRRHAFPLRPVITSIGGSADGEMACAHSDVLQSLCTFNGFSRYPLPVHENHWSSLYDLQRVVFLTADAEVVLERIEQGTVYIVGAFVDHNARKFLTRDAAIRYGVRMARLPIDESIKVGNICKVLTVNHVVDVLCRYTECGDWSTAFDVLPTRRTVSRRERRTNAHISMSSNTVFGECDSVDTDETGGTTRVASGQAD”, the “soluble on expression in E. coli” value was “not soluble”.
In the case of “MAHHHHHHMDEIKWPLRLLQILRNHLEQVDHPHEPRTLPIAAKCGQGGVLAFLTDVDDDVRRRTGASECITACCRGLVLDMIEQCCTLLFLSSKERRVINMAAVQREKRVVARGVGKRRRGDQGETTEETAIGETDNSQRKCAAVLPLEYLLRLFVALPSLLAHYDKLGGSTMPAAFKQPLWNYVNAVLDIMKDMTFLDPSEYIPLR” it was “not soluble”; in that of “MAHHHHHHMDGAYGMRTVLNSSRLEEEPKYTLNPADLPHSSMNANNMMNGAVLTNGYHTSDYVINRESYPPDMMPQFKIDQGGSAYNNTMPMNSIIHTDPNESINMQGMKTCLETTTGFDSYRNLMNYNNTQNTIQASQVPFHLDDYNSGADLMYMSHPHTGDNFSPDYLNNLRSTETDPMTYGNNFNIPNGQFNSMLGENNNYNSLPYSMPIFENMNNPQMYMQQMNSKQALSGPTQKMDHTCSIRKMPAVSKRKIKPKKFFPCC”, “soluble”.
Next, “MAHHHHHHMDSDLSAEIARIEAELAQDAELRQQQQQLAPQQPPASLFGFGQTAPVQPQQQQQQQLFQTQPPQPQQQPSNPFNVNASPFMPTPQQPDYSQQQQQQQQPIGSAGQAAAQASAPTPIIHSFSKDTDSRSIFIGNLPRGTDGTPTTTPEELVQFFADCGNILNCTVLKDRATGEPKGTAYIEFADYTAMGKAIDTKNNANFKGSTIIVCVSTSPLFSLAGFFG”: “soluble”; “MAHHHHHHMEAKLSSALRTCDKCRTYADLCRTFEAKVSPIVEQALQSPLVKAPRDHTTPDECSPRVAELREALCTRLGADKATPAEDDVWFLIYRTVSNFVERQQRKRSRDQDGTSLSTLVTNCFVLLCTRTLPQLDHMKLRWGFLKKERAALESSDAYVHSNASERRKLQLNATSVLSVFSERAHKHSFTFVWMLCVEKAGEAALHVHLLHRVGSVVLPYLTNPLVLADYLTGCFSSGGIISILSLQGLFLLMLDHGLEYPNYYEQLYSLLTPDVFASRYRYELFRLLDLSMTSLRVPSYIAASVIKRVAQVSLMAPAPTLYFSLPFLRKVLQSHPNCLALIHRSSREAVIPDDMADQDTDTVTAQSAKAQAMRDTAALFDGRDPFDDRAKLLETHALSSTLWELTALERHFMPVVPLMVSAFSSTAEDKTPLRYEKSYGRLFTAEVTRAIDCHNLPTIAYEAPSEADPTDLLSL”: “soluble”.
In the case of “MAHHHHHHMEAPTDNDSMQAGPVVVGHADGVLTMPSEDFASLHLQPIQDDTWIRNAEIVHMENFVETEDGKRIKREILKEYVEEKERQGTFHPDPILEGMIYQEKFMEAYRTNGRSVDADKAHSYRLKLLETHRRARAIENADT” it was “not soluble”; in that of “MAHHHHHHMEIKTASKIVRRVSNVEAFDKSGSVFKGYQIWTDISPTIENDPNIMFVKCVVQQGSKKEKLTVVQIDPPGTGTPYDIDPTHAWNCNSQVDPMSFGDIGLLNHTNIPCVLDFLKHRYLKNQIYTTAVPLIVAINPYKDLGNTTNEWIRRYRDTADHTKLPPHVFTCAREALSNLHGVNKSQTIIVSGESGAGKTEATKQIMRYFASSKSGNMDLRIQTAIMAANPVLEAFGNAKTIRNNNSSRFGRFMQLVISHEGGIRYGSVVAFLLEKSRIITQDDNERSYHIFYQFLKGANSTMKSKFGLKGVTEYKLLNPNSTEVSGVDDVKDFEEVIESLKNMELSESDIEVIFSIVAGILTLGNVRLIEKQEAGLSDAAAIMDEDMGVFNKACELMYLDPELIKREILIKVTVAGGTKIEGRWNKNDAEVLKSSLCKAMYEKLFLWIIRHLNSRIEPEGGFKTFMGMLDIFGFEVFKNNSLEQLFINITNEMLQKNFVDIVFERESKLYKDEGISTAELKYTSNKEVINVLCEKGKSVLSYLEDQCLAPGGTDEKFVSSCATNLKENNKFTPAKVASNKNFIIQHTIGPIQYCAESFLLKNKDVLRGDLVEVIKDSPNPIVQQLFEGQVIEKGKIAKGSLIGSQFLNQLTSLMNLINSTEPHFIRCIKPNENKKPLEWCEPKILIQLHALSILEALVLRQLGYSYRRTFEEFLYQYKFVDIAAAEDSSVENQNKCVNILKLSGLSESMYKIGKSMVFLKQEGAKILTKIQREKLVEWENCVSVIEAAILKHKYKQKVNKNIPSLLRVQAHIRKKMVA”, “not soluble”; in that of “MAHHHHHHMEKNQNDKSNKNDIIHMNDKSGNYDKNNINNFIDKNDEHDMSDILHKINNEEKKYEEIKSYSECLELLYKTHALKLGLDNPKKLNESFGHPCDKYKTIHIAGTNGKGSVCYKIYTCLKIKKFKVGLFSSPHIFSLRERIIVNDEPISEKELIHLVNEVLNKAKKLYINPSFFEIITLVAFLHFLNKKVDYAIIETGIGGRLDATNILTKPEVIVITSIGYDHLNILGDNLPIICNEKIGIFKKDANVVIGPSVAIYKNVFDKAKELNCTIHTVVPEPRGERYNEENSRIALRTLEILNISIDYFLKSIIPIKPPLRIQYLATEQIQHIKKKFSPDNLEHNVQYPLAVILDVGHNETAIDRLCTDINYFHKGQNIRICISITKPRNLSVFHPFIAQFGDTLKDIFYLPSLNERTYDFEEIVEMLNNEEEIKNEIKELILSSSKKVGKWLAHEKQGNINEEDALKLYKRGCIPLIIKNAFLECCKDNSILLVCGTFFVFDEVLNVFDIHSDMQDTIFMNEPSLV”, “soluble”.
On to “MAHHHHHHMFSFYIYRKKTISWDEVTINEQDKERGSRMKILEPNTPFNFILMDSASEDEASKYGDVKGSDEGQNNIADDLINKLNQLVEKQENKGVSNIDFKEKRKKHYNEYKMLQKLRKSGTLDDIDEEYKPDNKDSNCDNSVSQEFPCYIARNFVVISL”, for which the “soluble on expression in E. coli” value was “not soluble”.

(Values after the DeepSol protein solubility set.)
